Data set [1] addresses T1, HuR (ELAV, ELAVL1) (Homo sapiens, UniProt Q15717 SEQ:1-326). The data set can be described thus: EMSA. The conditions noted are these: tags: N-terminal GST (pGEX-5X-1), E. coli BL21, label: 32P-UTP. On the technique in general: In EMSA bound probe runs differently from free probe, usually more slowly.
The target of data set [2] is T1, HuR (ELAV, ELAVL1). The data set can be described thus: SPR; GST-HuR captured on CM5 chip; HBS-EP buffer. The settings on record: tags: N-terminal GST (pGEX-5X-1), E. coli BL21; 3-pronged stem-loop (predicted). An excerpt:
Specific protein-RNA interactions were detected by Surface Plasmon Resonance using the BIACore X optical biosensor (Pharmacia Biosensor AB, Upsala, Sweden).
The GST-fusion proteins of interest (GST alone or GST-ELAV (HuR)) were immobilized onto the surface of a CM5 Chip (Pharmacia Biosensor AB, Upsala, Sweden) by using the BIACore GST Capture Kit (Pharmacia Biosensor AB, Upsala, Sweden), according to the manufacturers instructions, until a change of at least 1,000 resonance units (RU) was detectable.
1 μg of in vitro transcribed RNA (using the T7/SP6 Riboprobe Kit, Promega, Mannheim, Germany) was diluted in a total volume of 80 μl HBS-EP buffer (10 mM HEPES, 150 mM NaCl, 3 mM EDTA, 0.005% (v/v) polysorbate 20) and was allowed to flow over the chip at a flow rate of 50μl/minute. The standard running buffer was HBS-EP buffer. The sensor surface was regenerated between assays by injecting 30 μl of 0.5 M NaCl to remove bound analyte.

The source of these data is patent publication US20020165186, “Compounds that affect CD83 expression, pharmaceutical compositions comprising said compounds and methods for identifying said compounds” (published 2002).

T1 sequence (Q15717 whole entry T180A): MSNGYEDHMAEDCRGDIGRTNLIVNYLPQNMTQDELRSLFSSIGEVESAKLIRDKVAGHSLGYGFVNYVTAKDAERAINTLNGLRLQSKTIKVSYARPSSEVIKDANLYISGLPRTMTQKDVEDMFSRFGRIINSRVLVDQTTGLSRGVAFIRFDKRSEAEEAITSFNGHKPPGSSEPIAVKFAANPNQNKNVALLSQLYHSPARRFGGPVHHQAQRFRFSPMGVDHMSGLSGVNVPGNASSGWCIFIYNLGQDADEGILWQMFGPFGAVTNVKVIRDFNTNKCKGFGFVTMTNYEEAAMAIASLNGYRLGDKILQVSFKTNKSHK

B1: CD83 RNA nt295-465 (stem-loop-1) (ssRNA)
RNA: AGCUGCAACUCGGGGACAUACAGGUGCACUCUGCAGGACCCGGAUGGGCAGAGAAACCUAAGUGGCAAGGUGAUCUUGAGAGUGACAGGAUGCCCUGCACAGCGUAAAGAAGAGACUUUUAAGAAAUACAGAGCGGAGAUUGUCCUGCUGCUGGCUCUGGUUAUUUUCUAC
For the molecule B1, in the data set with HuR (ELAV, ELAVL1) [1] (single stem-loop (nt412-465, predicted)), the binding result is listed as “binds”.

B2: CD83 RNA nt466-615 (stem-loop-2) (ssRNA)
RNA: UUAACACUCAUCAUUUUCACUUGUAAGUUUGCACGGCUACAGAGUAUCUUCCCAGAUUUUUCUAAAGCUGGCAUGGAACGAGCUUUUCUCCCAGUUACCUCCCCAAAUAAGCAUUUAGGGCUAGUGACUCCUCACAAGACAGAACUGGUA
Turning to B2, the binding result in the data set with HuR (ELAV, ELAVL1) [2] was “binds”.

B3: CD83 RNA nt466-618 (stem-loop-2) (ssRNA)
RNA: UUAACACUCAUCAUUUUCACUUGUAAGUUUGCACGGCUACAGAGUAUCUUCCCAGAUUUUUCUAAAGCUGGCAUGGAACGAGCUUUUCUCCCAGUUACCUCCCCAAAUAAGCAUUUAGGGCUAGUGACUCCUCACAAGACAGAACUGGUAUGA
As to B3, in the data set with HuR (ELAV, ELAVL1) [1] (3-pronged stem-loop (predicted)), the binding result is listed as “binds”.
